Molecular target: T1, NP from influenza virus A/WSN/33 with a C-terminal His tag (Influenza A virus A/WSN/33), P15682
T1 chain: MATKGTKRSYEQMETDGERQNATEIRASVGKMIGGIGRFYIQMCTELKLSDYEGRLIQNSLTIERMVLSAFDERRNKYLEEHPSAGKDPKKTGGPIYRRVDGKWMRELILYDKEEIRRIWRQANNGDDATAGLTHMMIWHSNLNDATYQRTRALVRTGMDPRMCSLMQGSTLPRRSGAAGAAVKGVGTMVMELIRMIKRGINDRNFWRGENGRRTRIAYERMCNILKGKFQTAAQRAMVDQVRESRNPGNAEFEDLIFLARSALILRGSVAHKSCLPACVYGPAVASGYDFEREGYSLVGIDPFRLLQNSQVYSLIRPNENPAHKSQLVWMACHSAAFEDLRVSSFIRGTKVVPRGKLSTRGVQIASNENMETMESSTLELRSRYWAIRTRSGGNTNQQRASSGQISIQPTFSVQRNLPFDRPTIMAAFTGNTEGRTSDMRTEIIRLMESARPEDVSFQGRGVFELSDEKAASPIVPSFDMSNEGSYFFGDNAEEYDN
Assay: crystal structure
Conditions: remark: other sources report otherwise

B1: NP from influenza virus A/WSN/33 with a C-terminal His tag, P15682 1-498 (natural protein)
chain: T1 chain
Work on B1 yielded a stoichiometry N of 3.

Source: publication PMC5156300 (mBio, 2016)
